Target: T1, human GARP (Glycoprotein A Repetitions Predominant, LRRC32) stably expressed on Pre-B (70Z/3) cells (human, UniProt Q14392 20-662)
T1 construct: whole, on cells; also called hGARP; huGARP
T1 sequence (looked up): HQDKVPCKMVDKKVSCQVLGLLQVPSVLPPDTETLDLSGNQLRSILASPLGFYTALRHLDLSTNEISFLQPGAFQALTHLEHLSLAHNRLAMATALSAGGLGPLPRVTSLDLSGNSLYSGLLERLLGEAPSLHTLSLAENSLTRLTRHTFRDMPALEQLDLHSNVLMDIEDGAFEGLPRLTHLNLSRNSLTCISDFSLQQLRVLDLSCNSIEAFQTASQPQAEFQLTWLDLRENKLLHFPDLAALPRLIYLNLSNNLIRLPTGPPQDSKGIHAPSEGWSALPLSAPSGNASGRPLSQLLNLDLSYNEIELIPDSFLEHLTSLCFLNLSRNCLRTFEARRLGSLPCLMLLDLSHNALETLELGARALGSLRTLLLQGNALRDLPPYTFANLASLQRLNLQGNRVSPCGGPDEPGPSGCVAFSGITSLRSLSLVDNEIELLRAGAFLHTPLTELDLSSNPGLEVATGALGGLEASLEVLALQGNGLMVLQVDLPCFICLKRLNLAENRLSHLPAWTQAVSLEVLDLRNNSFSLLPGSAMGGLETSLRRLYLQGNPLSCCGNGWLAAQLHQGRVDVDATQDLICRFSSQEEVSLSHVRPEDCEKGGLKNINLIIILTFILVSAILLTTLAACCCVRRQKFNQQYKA
Experiment: flow cytometry on Pre-B cells stably expressing human GARP (FIG. 7A)

B1: 5C5 anti-GARP monoclonal antibody (antibody, V domains shown)
VH: EVKLVESGGGSVKPGGSLKLSCAASGFTFSNYVMSWVRQTPEKRLEWVATISSGGSYTYYPDSVKGRLTISRDNAKNTLYLQMSSLRSEDTAMYYCARGYDNGDYVMDYWGQGTSVTVSS
VL: DIVLTQSPASLAVSLGQRATISCRASESVDTYGNSFMHWYQQIPGQPPKVLIYRASNLESGIPARFSGSGSRTDFTLTINPVEAGDVATYYCQQTNEHPPTFGGGTKLEIK
notes: Mouse hybridoma mAb; also called 5C5 (IgG2a)
  binding result: binds

Source: patent US20210292433A1 (MUSC FOUNDATION FOR RESEARCH DEVELOPMENT, published 2021)
